B1: 3xHA-pUL56: full-length amino-terminal 3xHA-tagged pUL56, HCMV large terminase subunit, purified from transfected HEK293 (protein)
chain: MEMNLLQKLCVVCSKCNEYAMELECLKYCDPNVLLAESTPFKRNAAAIVYLYRKIYPEVVAQNRTQSSLLTLYLEMLLKALHEDTALLDRALMAYSRQPDRAAFYRTVLRLDRCDRHHTVELQFTDNVRFSVSLATLNDIERFLCKMNYVYGILAPEAGLEVCAQLLELLRRLCGISPVARQEVYVEGTTCAQCYEELTIIPNQGRSLNKRLQGLLCNHIAVHRPSSQSDVNIQTVEQDLLDLTTRIPHLAGVLSALKSLFSSSSAYHSYIQEAEEALREYNLFTDIPERIYSLSDFTYWSRTSEVIVKRVGITIQQLNVYHQLCRALMNGISRHLYGEDVEDIFVLGEKALDGEERMFVGSVFAAPNRIIDLITSLSIQAFEDNPVFNKLHESNEMYTKIKHILEEIRRPLPDGTGGDGPEGEAIHLRGREAMSGTGTTLMTASNSSNSSTHSQRNNGGGGRARGGGKKAVGGGANGQDGDGSENGLRVRNCDEHEALDLVDARSRIHNVTREVNVRKRAYLQKVSEVGYGKVIRCIKTQERLTSKLIDVNLVGPLCLDFISKLMNGFLYRSQYHQDQDVVDVGDQFTYDEHLYVVNNLIHKSLPVESLPLLGQQIYELCNGPLFTHCTDRYPLSHNVDMAYACDNAGVLPHVKDDLVKCAEGTVYPSEWMVVKYMGFFNFSDCQDLNVLQKEMWMHVRELVLSVALYNETFGKQLSIACLRDELHPDRDVILTYNKEWPLLLRHEGNLYKSKDLYLLLYRHLSRPDESGDVPTAPVAKPSTLTAAAAVSGAFREPDRPWLPSPYPSSSTAGVSRRVRATRKRPRRASSLLDLARDEHGIQDLVPGSLR
modifications: left off: small tags and cut ends
notes: full-length amino-terminal 3xHA-tagged pUL56, HCMV large terminase subunit, purified from transfected HEK293
B2: pUL56 depleted of its W671-F680 fragment (protein)
chain: MEMNLLQKLCVVCSKCNEYAMELECLKYCDPNVLLAESTPFKRNAAAIVYLYRKIYPEVVAQNRTQSSLLTLYLEMLLKALHEDTALLDRALMAYSRQPDRAAFYRTVLRLDRCDRHHTVELQFTDNVRFSVSLATLNDIERFLCKMNYVYGILAPEAGLEVCAQLLELLRRLCGISPVARQEVYVEGTTCAQCYEELTIIPNQGRSLNKRLQGLLCNHIAVHRPSSQSDVNIQTVEQDLLDLTTRIPHLAGVLSALKSLFSSSSAYHSYIQEAEEALREYNLFTDIPERIYSLSDFTYWSRTSEVIVKRVGITIQQLNVYHQLCRALMNGISRHLYGEDVEDIFVLGEKALDGEERMFVGSVFAAPNRIIDLITSLSIQAFEDNPVFNKLHESNEMYTKIKHILEEIRRPLPDGTGGDGPEGEAIHLRGREAMSGTGTTLMTASNSSNSSTHSQRNNGGGGRARGGGKKAVGGGANGQDGDGSENGLRVRNCDEHEALDLVDARSRIHNVTREVNVRKRAYLQKVSEVGYGKVIRCIKTQERLTSKLIDVNLVGPLCLDFISKLMNGFLYRSQYHQDQDVVDVGDQFTYDEHLYVVNNLIHKSLPVESLPLLGQQIYELCNGPLFTHCTDRYPLSHNVDMAYACDNAGVLPHVKDDLVKCAEGTVYPSENFSDCQDLNVLQKEMWMHVRELVLSVALYNETFGKQLSIACLRDELHPDRDVILTYNKEWPLLLRHEGNLYKSKDLYLLLYRHLSRPDESGDVPTAPVAKPSTLTAAAAVSGAFREPDRPWLPSPYPSSSTAGVSRRVRATRKRPRRASSLLDLARDEHGIQDLVPGSLR
modifications: left off: small tags and cut ends

Molecular target: T1, full-length pUL89 (His-pUL89) (Human cytomegalovirus, UniProt P16732)
T1 construct: made in house; host or cells: HEK293
Test: Alpha assay (Amplified Luminescent Proximity Homogeneous Assay) of the pUL56/pUL89 protein-protein interaction
Type: binding, human cytomegalovirus (HCMV), AD169
Description: FIG. 2: Determination of pUL56 binding domains for the interaction with pUL89 Alpha assay results. The Alpha assay for the binding of full-length pUL89 (His-pUL89, 1.5E+03 nM) was performed with 5E+02 nM wild-type pUL56 (HA-pUL56) or a deletion mutant of pUL56 (HA-pUL56 Del W671-F680). As a negative control, proteins were used alone and a reaction was performed without proteins (mock). Two measures for each reaction were performed in duplicate.
Alpha (Amplified Luminescent Proximity Homogeneous Assay) experiments were conducted according to the manufacturer's protocol (PerkinElmer, USA). Five μL of transfected MRC-5 lysate with HCMV-BAC is first disposed in wells of a 96-well AlphaPlate. The final concentration of each proteins was optimized to obtain the best value of interaction. Ten μL of each purified protein were combined (to give a final assay concentration of 500 nM of 3xHA-pUL56 and 1.5 μM of 6xHis-pUL89). Ten μL and 15 μL of 10 mg/mL of donor beads and acceptor beads, respectively, were added and incubated for 1 hour. Plates were read on a PerkinElmer EnVision™ plate reader using an excitation wavelength of 680 nm and emission detection was set at 615 nm.
HEK293 were transfected with SC784 and pCI-neo His-89 expression plasmids and protein-protein interactions were carried out by the Alpha assay. This technology represents a powerful method to highlight protein-protein interactions (Ullman et al., 1994) (Waller et al., 2010). […]
Alpha assay needs both acceptor and donor beads. […] In the absence of a specific biological interaction between proteins, singlet molecules produced by the Donor bead cannot be detected beyond 200 nm from the Acceptor bead (data not shown). […] Alpha assays with 3xHA-pUL56 and 6xHis-pUL89 results in the production of over 9,000 relative light units (RLU), over two-fold more than negative controls (3xHA-pUL56 or His-pUL89) (FIG. 2). pUL56 depleted of its W671-F680 fragment was in turn soaked with pUL89-WT and their affinity assessed by Alpha analysis. […]

T1 sequence (P16732 whole entry): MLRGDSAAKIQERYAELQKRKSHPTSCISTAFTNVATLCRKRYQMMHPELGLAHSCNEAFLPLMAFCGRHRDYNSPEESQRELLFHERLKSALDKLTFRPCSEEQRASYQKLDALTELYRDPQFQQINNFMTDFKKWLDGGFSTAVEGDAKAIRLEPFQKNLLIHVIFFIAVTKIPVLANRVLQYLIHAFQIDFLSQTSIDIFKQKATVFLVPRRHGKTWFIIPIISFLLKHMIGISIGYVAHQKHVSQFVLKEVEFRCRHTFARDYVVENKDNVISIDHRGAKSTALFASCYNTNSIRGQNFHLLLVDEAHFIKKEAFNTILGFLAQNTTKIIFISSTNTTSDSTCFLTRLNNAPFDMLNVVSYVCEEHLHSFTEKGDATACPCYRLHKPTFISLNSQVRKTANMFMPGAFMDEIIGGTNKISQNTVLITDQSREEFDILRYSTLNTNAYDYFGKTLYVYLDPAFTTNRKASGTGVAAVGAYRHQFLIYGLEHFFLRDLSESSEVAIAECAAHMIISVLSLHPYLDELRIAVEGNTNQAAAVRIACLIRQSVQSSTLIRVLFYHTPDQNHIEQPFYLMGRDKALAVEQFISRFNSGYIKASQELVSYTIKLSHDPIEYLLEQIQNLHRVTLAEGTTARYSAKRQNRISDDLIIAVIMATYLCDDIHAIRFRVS

Row | Molecule | Alpha assay signal relative to negative controls (3xHA-pUL56 or His-pUL89 alone) (500 nM 3xHA-pUL56 with 1.5 μM 6xHis-pUL89) | Alpha assay signal (light production at 615 nm) (500 nM 3xHA-pUL56 with 1.5 μM 6xHis-pUL89, purified proteins from HEK293) | decrease of the interaction signal with pUL89-WT (pUL56 deletion mutant versus wild-type pUL56, FIG. 2)
1 | B1 | over two-fold | over 9,000 relative light units (RLU) | 
2 | B2 |  |  | 50%

— patent US11174322B2, “Antibodies and peptides to treat HCMV related diseases” (priority 2017, dated 2021)
